From the supplement of paper PMC9942255
Where “and” joins values, the source holds several entries; their conditions need not be identical. Equal values may be shown once.

Tested on: Bacillus subtilis DB104 (SP-AmyQ fusion secretion)
Assay: AmyQ secretion efficiency, weighted average sort bin (1 = best secretion, 10 = worst) (bin number (weighted average, 1-10)); higher = lower secretion efficiency
Outline: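 B. subtilis DB104 library expressing mature AmyQ fused to designed signal peptides (amyE-integrated) was encapsulated at about 0.3 cells per ~65 nL alginate bead with fluorescein-starch, grown about 13 h at room temperature and nile red stained. Occupied beads were sorted by large-particle flow cytometry into 10 equally populated bins by green/red fluorescence ratio, and each bin's amplicons were Illumina-sequenced. Secretion score is the read-frequency-weighted average bin number, normalised to beads per bin, excluding low-abundance sequences.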

Row | Sequence | AmyQ secretion efficiency
1 | MIKKLAAGLTASAIVGTTLVVTPAEAATI | 2.3
2 | MKKLFIFSAILTLSIFAPNETFAQTA | 2.72
3 | MRKKCSVCLWILVLLLSCKRGKSAYAATS | 6.83
4 | MRKKLKWLSFLLGFIILLFLFFFIALIVLAKYQFSNNDS | 6.41
5 | MKRIRIPMTLALGAALTISFASAEEN | 6.71
6 | MKLWMRKTLVVLFTIVTFGLVSPPAASMADKP | 1.85
7 | MKKQIITATTAVVLGSTLFAGADSAQSI | 3.56
8 | MKRLFMKARRKKKAVVFVFAVKGAPAKAETH | 8.85
9 | MLKRTSFVSSSFISSAVLLSILLPSGQAHAQSA | 2.16
10 | MKKIVSILFMFGLVMGFSQFQPSTMFAADK | 2.83
11 | MRFTKVVGFLSVLGLAAVFPLTCQAEKA | 2.19
12 | MRFTKFMSIVVGFLSVLGLAAVFPLTAQAEKA | 2.72
13 | MRSYIKVRRRCRRRLILFVPTALADNS | 6.04
14 | MKNMSCKLVVSVTLFFSFLFTIGPLAHAQNS | 1.19
15 | MNLRKILLFIALFLMMLTVSAAPVLATSS | 1.67
16 | MMIKQCVICLSLLVFGTTAAHSEET | 4.24
17 | MKKKLAAGLTASAIVGTTLVVTPIEAATI | 2.11
18 | MRSYIKVLTMCFLGLILFVPTALPDNS | 7.02
19 | MKKQIKKKRKKVVLGSTLFAGAASAQSI | 7.55
20 | MNLRKILLSSALSLGMLKRKAPVLATSS | 7.26
21 | MKKLVLCVSILAVILSGVYLTQLS | 5.92
22 | MKKAAAVLLSLGLVFGFSYGAGHVAEAATS | 2.5
23 | MKKLVLCVSILAVILSGVALTQLS | 5.95 and 6.59 and 6.66
24 | MKKTIMSFVAVAALSTTAFTGAHASAKEI | 2.34

Row | Sequence | AmyQ secretion efficiency
25 | MTKKAWFLPLVCVLLISGWLAPAASGSAQTT | 2.23
26 | MGLGKKLSVAVAASFMSLSISLPGRQAAEG | 3.87
27 | MTKKYWQSPYYCRLLISGWLAPAASASAQTT | 8.15
28 | MHLIRAAGAVCLAVVLIAGCRKKKRKRHRAEGENT | 7.2
29 | MKKGIIRFLLVSFVLFFALSTGITGVQVAPA | 6.17
30 | MKKKSTVFLSVVLVTTVFLVKQQESVAQAKQL | 2.06
31 | MKKKRRKCSICCAAVLLAGGAAQAEAV | 6.1
32 | MIAYFGKCLLLVTIMFLGVLFGMQQMNHG | 5.05
33 | MKLKSKLLLSCLALSTVFVATTIKNAPTH | 6.58
34 | MIVIILLFISIIVFLKRKKKKIQPQPS | 8.16
35 | MKRLFMKYKRYQKQVVFVFAVKGAPAKAETH | 7.88
36 | MKIRKILLSSALSFGMLISAVPGLAAGT | 3.97
37 | MKRLLVSLRVWMVFLMNWVTPKRKTAAAAVY | 5.43
38 | MRKKTKNRLISSVLSTVVISSLLFPGAAGASSD | 2.47
39 | MHLIRAKKRKCRAVVLIAGCRFNEDQHQAEGENT | 5.77
40 | MMTAIIIAIIAAVIVIAALITFNVRNASPG | 6.42
41 | MFKKHQRRQRIIFLLASAVLAKPIEAHTV | 6.33
42 | MNKLKRLSMLTVMIASVFIFSSHALMAQY | 7.08
43 | MTMLRKIIGWILLLCIIATPLFAFTVIASGKEV | 5.08
44 | MSKGIIRFLLVSFVLFFALSTGITGVQAAPA | 2.19
45 | MTTTIAWFLPLVCVLLISGWLAPAASASAQTT | 2.38
46 | MKLRKVLTGSVLSLGLLVSASPAFATED | 2.67
47 | MLCVMMLLFSAIASFPVSAQDKDQ | 6.19
48 | MKRLLSTLLIGIMLLTFAPSAFAAQQ | 1.25

Row | Sequence | AmyQ secretion efficiency
49 | MGLGKKLSVAVAASFMSLSISLVSVQAAEG | 1.37
50 | MKLWMRKTLVVLFTIVTFGLVVPPAALMADKP | 2.83
51 | MKRITINIITMFIAAAVIEEDEEAEAAEK | 5.79
52 | MRSYIKVLTMCFLGLILFVPTALAEEE | 2.15
53 | MKKRFSLIMMTGLLFGLTKRKKKKAFAAEK | 7.34
54 | MLTFLIGAGVAAVILSGWFIADHQTHSQEM | 6.55
55 | MKKGIRFLLVSFVLFFALSTGITGVQAAPA | 2.35
56 | MRSYIKVLTMCFLGLILFVPTALFDNS | 7.14
57 | MIAYFGKCLLLVTIMFLGVLFGMWQANHG | 7.19
58 | MAIIIAIIAAVIVIAALITFNVRNKSPG | 6.36
59 | MTMLRKIIGWILLLCIIPLFAFTVIASVKEV | 7.89
60 | MFNRLRVCFLAALIMAFTLPNSVYAQKP | 2
61 | MKQIKKKRTSFMLLAMTGQTALAKDV | 6.55
62 | MLKKKWMVGLLAGCLAAGGFSYNAFHTEN | 6.18
63 | MRSKKLWISLLFALTLITFTMAFSNMSAQAAGK | 3.27
64 | MKKLLAAGIIGLLTVSIASPSFYAEK | 7.71
65 | MRSYIKVLTMCFLGLILFVPTILADNS | 2.6
66 | MRKWYFILLAGVLTSVILAFVYDKTKANDD | 6.75
67 | MTKLKMLSMLTVMIASLFIFSSQGLAVQY | 2.52
68 | MRNLTKTSLLLAGLCTAAQMVFVTHASAASK | 1.6
69 | MKVLLSALLLLLFAFEPSPSGKKL | 6.9
70 | MNLRKNSFFILLSSALSLGMLVSAAPVLATSS | 1.98
71 | MKKVVSALSISALALSVSGVASAHEI | 2.8
72 | MNKKYFVLIVCIIFTSALFPTFSSVTLAQG | 2.52

Row | Sequence | AmyQ secretion efficiency
73 | MKKKQVMGYTTAAAGLGLTALHSAPAAKAAPL | 7.28
74 | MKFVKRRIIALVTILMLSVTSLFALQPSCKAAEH | 2.68
75 | MKKSQYFIVFICFFVLFSRRKHKRRAAAADS | 7.81
76 | MRPVFPLILSAVLFLSCFFGARQTEPSASKR | 5.61
77 | MKKKQVMLALTAAAGLGLTALHSAPAVAGAAKAAPL | 2.43
78 | MRFTKVVGFLSVLGLAAKKRKRRAQAEKA | 7.6
79 | MKKKQVMLALTAAAGLGLTALHSAPAAKQAPL | 4.93
80 | MGSSILLSSLAISALSLGLLVSAPTASFAAES | 3.62
81 | MRNLTKTSLLLAGLCTAAQMVFVTHLSAEES | 3.52
82 | MKKWTNMSLLIIAVSLAIAIVLFMYTKGEAKAAGM | 2.33
83 | MKKLLAAGIIGLLTVTVFVTSIASPSFAAEK | 2.51
84 | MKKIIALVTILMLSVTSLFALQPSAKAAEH | 2.46
85 | MKKWMITIAMLILAGIALFVFISPLKRHKT | 7.32
86 | MKSKGSIMACLILFSFTITTFINTETISQFSN | 7.33
87 | MKKFVAVAALSTTAFGAHASAKEI | 6.74
88 | MIRSISIFITCLLITLLTMGGMIASPASAAGT | 2.35
89 | MKKTIMSFVAVAALSTTAFRRRKKKHASAKEI | 6.72
90 | MRKLWISLLFALTLIFTMAFSNMSAQAAGK | 2.67
91 | MKSKGSIMACLILFSFTITTFINTETISAFRR | 6.09
92 | MLKKKWMVGLLAGCLAAGGFSYNAFATKK | 4.27
93 | MKNMSCKLVVSVTLFFSFLTIGPLAHAQED | 2.36
94 | MFFVLMAFIICLSLILSVLAAPPSGAKAESV | 5.38
95 | MKKLLAAGIIGLLTVSIASPSFGAEK | 4.39
